Measured values published in article doi:10.1101/324103 (bioRxiv, 2018).

Target: the molecule itself
Test: SEC-MALS + AUC

B1: ammonium transporter AmtB from Escherichia coli (natural protein)
chain: APAVADKADNAFMMICTALVLFMTIPGIALFYGGLIRGKNVLSMLTQVTVTFALVCILWVVYGYSLAFGEGNNFFGNINWLMLKNIELTAVMGSIYQYIHVAFQGSFACITVGLIVGALAERIRFSAVLIFVVVWLTLSYIPIAHMVWGGGLLASHGALDFAGGTVVHINAAIAGLVGAYLIGKRVGFGKEAFKPHNLPMVFTGTAILYIGWFGFNAGSAGTANEIAALAFVNTVVATAAAILGWIFGEWALRGKPSLLGACSGAIAGLVGVTPACGYIGVGGALIIGVVAGLAGLWGVTMLKRLLRVDDPCDVFGVHGVCGIVGCIMTGIFAASSLGGVGFAEGVTMGHQLLVQLESIAITIVWSGVVAFIGYKLADLTVGLRV
stoichiometry N: 3
